Laboratory results as given in US8409833B2 (Hokko Chemical Industry Co., Ltd., priority 2003, dated 2013).

Test: Reducing and oxidation activity of recombinant myo-inositol 2-dehydrogenase (BG10669 gene product)
Type: biochemical
Experimental: The myo-inositol 2-dehydrogenase reducing activity was measured as described below. 5 μl of a reaction solution (200 mM Tris buffer (pH 8.0), 2% of NADH, 1% of scyllo-inosose) was mixed with 5 μl of an enzyme solution, and the mixture was allowed to react at 36° C. for 30 min. Immediately after the reaction, 500 μl of water was added, and the absorbance at 340 nm was measured. From the blank value of a test tube prepared by using water instead of the enzyme solution, the decrease in the absorbance at 340 nm was measured. […] The reaction rate was calculated from the absorbance increments at the respective times.

B1: myo-inositol 2-dehydrogenase: recombinant myo-inositol 2-dehydrogenase, product of BG10669 gene derived from Bacillus subtilis 168 ATCC23857 (protein, UniProt P26935 1-344, looked up)
Inositol …: MSLRIGVIGTGAIGKEHINRITNKLSGAEIVAVTDVNQEAAQKVVEQYQLNATVYPNDDSLLADENVDAVLVTSWGPAHESSVLKAIKAQKYVFCEKPLATTAEGCMRIVEEEIKVGKRLVQVGFMRRYDSGYVQLKEALDNHVIGEPLMIHCAHRNPTVGDNYTTDMAVVDTLVHEIDVLHWLVNDDYESVQVIYPKKSKNALPHLKDPQIVVIETKGGIVINAEIYVNCKYGYDIQCEIVGEDGIIKLPEPSSISLRKEGRFSTDILMDWQRRFVAAYDVEIQDFIDSIQKKGEVSGPTAWDGYIAAVTTDACVKAQESGQKEKVELKEKPEFYQSFTTVQN
oxidation activity on myo-inositol (1% myo-inositol, NAD^+, pH 8.0, 25° C.): have an activity to oxidize myo-inositol
oxidation activity on scyllo-inositol (1% scyllo-inositol, NAD^+, pH 8.0, 25° C.): no activity to oxidize scyllo-inositol
reducing activity on scyllo-inosose (NADH, pH 8.0, 36° C., 30 min): have an activity to reduce scyllo-inosose
